The assay addresses T1, human IL-12 (human, UniProt P29460 23-328; P29459 23-219).
T1 construct: also called Interleukin-12
T1 sequence 1: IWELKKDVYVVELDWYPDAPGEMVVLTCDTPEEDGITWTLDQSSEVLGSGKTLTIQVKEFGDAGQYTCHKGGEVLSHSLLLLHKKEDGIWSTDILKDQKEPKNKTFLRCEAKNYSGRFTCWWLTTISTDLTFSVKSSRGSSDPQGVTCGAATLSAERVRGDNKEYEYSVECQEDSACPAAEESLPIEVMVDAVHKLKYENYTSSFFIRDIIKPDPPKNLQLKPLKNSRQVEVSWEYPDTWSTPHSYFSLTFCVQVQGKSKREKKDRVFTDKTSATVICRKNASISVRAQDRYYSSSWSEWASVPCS
T1 sequence 2: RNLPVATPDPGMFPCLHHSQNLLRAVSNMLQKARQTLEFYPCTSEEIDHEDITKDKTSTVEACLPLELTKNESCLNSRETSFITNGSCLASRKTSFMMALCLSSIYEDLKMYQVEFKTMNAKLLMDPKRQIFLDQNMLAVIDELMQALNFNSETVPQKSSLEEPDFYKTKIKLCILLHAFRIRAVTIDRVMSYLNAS
Nature of the assay: SPR (Biacore T200), 37 C, pH 7.4; captured antibody, IL-12 analyte. The method, then:
The affinity of anti-IL-12 antibodies binding to human IL-12 at pH 7.4 were determined at 37 degrees C. using Biacore T200 instrument (Cytiva). Anti-human Fc antibody (Cytiva) was immobilized onto all flow cells (FCs) of a CM4 sensor chip using amine coupling kit (Cytiva). All antibodies and analytes were prepared in ACES pH 7.4 containing 20 mM ACES, 150 mM NaCl, 0.05% Tween 20, 0.005% NaN₃. Each antibody was captured onto the sensor surface by anti-human Fc antibody. Antibody capture levels were aimed at 50 response unit (RU). 5 nM of human IL-12 were injected as analyte, followed by dissociation. Sensor surface was regenerated each cycle with 3M MgCl₂. […] Based on the results in Table 9, it is observed that binding kinetics of anti-IL-12 antibody AbI variants towards IL-12 were not drastically changed compared to control (−/−).

Substitutions are numbered along the chain they refer to. In names and notes the source's numbering stands.

B1: Anti-IL-12 antibody Ab1 (Ab101H-12aa-C8/Ab102L-SK1) (antibody)
heavy: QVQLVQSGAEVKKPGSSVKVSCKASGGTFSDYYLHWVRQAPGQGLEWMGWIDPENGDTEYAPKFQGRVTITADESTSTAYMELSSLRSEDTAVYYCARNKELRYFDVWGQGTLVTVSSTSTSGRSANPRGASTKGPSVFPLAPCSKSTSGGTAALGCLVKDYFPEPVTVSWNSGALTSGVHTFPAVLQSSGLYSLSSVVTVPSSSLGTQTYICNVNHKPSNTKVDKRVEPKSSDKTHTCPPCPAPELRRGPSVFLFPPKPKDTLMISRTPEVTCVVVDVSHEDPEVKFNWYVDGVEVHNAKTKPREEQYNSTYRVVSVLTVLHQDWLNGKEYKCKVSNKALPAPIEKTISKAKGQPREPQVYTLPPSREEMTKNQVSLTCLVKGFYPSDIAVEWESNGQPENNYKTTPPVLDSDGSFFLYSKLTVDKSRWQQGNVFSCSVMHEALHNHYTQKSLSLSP
light: DIVMTQSPLSLPVTPGEPASISCRASQSISINLHWYQQKPGQAPRLLIYFASQSISGVPSRFSGSGSGTDFTLTISSLQPEDFATYYCQQSNSFPLTFGQGTKVEIKRTVAAPSVFIFPPSDEQLKSGTASVVCLLNNFYPREAKVQWKVDNALQSGNSQESVTEQDSKDSTYSLSSTLTLSKADYEKHKVYACEVTHQGLSSPVTKSFNRGEC
notes: Homodimer of light chain and heavy chain; also called -/- (control)
Molecule B1 gave a Kd of 0.948 nM.

B2: Anti-IL-12 antibody Ab1 variant F100aI VH/Y49A, Y87L VL (antibody, name in Kabat numbering, V domains shown)
VH: QVQLVQSGAEVKKPGSSVKVSCKASGGTFSDYYLHWVRQAPGQGLEWMGWIDPENGDTEYAPKFQGRVTITADESTSTAYMELSSLRSEDTAVYYCARNKELRYIDVWGQGTLVTVSS
VL: DIVMTQSPLSLPVTPGEPASISCRASQSISINLHWYQQKPGQAPRLLIAFASQSISGVPSRFSGSGSGTDFTLTISSLQPEDFATYLCQQSNSFPLTFGQGTKVEIKR
notes: Ab1 with VH/VL interface substitutions; Kabat numbering
B2: the Kd was 2.1 nM.

B3: Anti-IL-12 antibody Ab1 variant -/Y87L VL (antibody, V domains shown)
VH: B2 VH with I105F
VL: B2 VL with A49Y
notes: as for B2
In the case of B3, the Kd was found to be 1.46 nM.

B4: Anti-IL-12 antibody Ab1 variant -/A43Q VL (antibody, V domains shown)
VH: B2 VH with I105F
VL: B2 VL with A43Q, A49Y, L87Y
notes: as for B2
B4 showed a dissociation constant Kd of 0.937 nM.

B5: Anti-IL-12 antibody Ab1 variant L45A VH/- (antibody, name in Kabat numbering, V domains shown)
VH: B2 VH with L45A, I105F
VL: B2 VL with A49Y, L87Y
notes: as for B2
For the molecule B5, binding was put at a Kd of 1.27 nM.

B6: Anti-IL-12 antibody Ab1 variant G44Q VH/- (antibody, name in Kabat numbering, V domains shown)
VH: B2 VH with G44Q, I105F
VL: B2 VL with A49Y, L87Y
notes: as for B2
Molecule B6 came in with a Kd of 0.793 nM.

B7: Anti-IL-12 antibody Ab1 variant V37S VH/L46Q, Y49A, Y87M VL (antibody, name in Kabat numbering, V domains shown)
VH: B2 VH with V37S, I105F
VL: B2 VL with L46Q, L87M
notes: as for B2
The molecule B7 gave a Kd of 3.87 nM.

B8: Anti-IL-12 antibody Ab1 variant V37S VH/A43Q, Y49A VL (antibody, name in Kabat numbering)
heavy: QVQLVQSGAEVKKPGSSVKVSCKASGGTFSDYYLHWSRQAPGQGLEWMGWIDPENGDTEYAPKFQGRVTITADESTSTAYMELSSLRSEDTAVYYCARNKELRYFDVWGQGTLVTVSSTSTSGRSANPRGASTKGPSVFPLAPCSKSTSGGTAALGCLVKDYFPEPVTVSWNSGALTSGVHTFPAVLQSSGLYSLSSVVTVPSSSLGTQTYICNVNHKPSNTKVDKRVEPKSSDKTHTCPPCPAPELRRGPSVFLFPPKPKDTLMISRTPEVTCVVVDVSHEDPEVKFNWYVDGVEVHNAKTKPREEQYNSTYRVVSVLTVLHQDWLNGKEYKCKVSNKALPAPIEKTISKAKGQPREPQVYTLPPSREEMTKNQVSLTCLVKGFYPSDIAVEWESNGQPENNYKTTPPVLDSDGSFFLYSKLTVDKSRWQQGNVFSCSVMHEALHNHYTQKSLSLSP
light: B1 light with A43Q, Y49A
notes: as for B2
Take B8: binding was put at a Kd of 1.49 nM.

B9: Anti-IL-12 antibody Ab1 variant F100aI VH/A43Q, Y49A VL (antibody, name in Kabat numbering, V domains shown)
VH: B2 VH
VL: B2 VL with A43Q, L87Y
notes: as for B2
For B9, binding was characterised by a dissociation constant (Kd) of 1.33 nM.

B10: Anti-IL-12 antibody Ab1 variant -/F98L VL (antibody)
heavy: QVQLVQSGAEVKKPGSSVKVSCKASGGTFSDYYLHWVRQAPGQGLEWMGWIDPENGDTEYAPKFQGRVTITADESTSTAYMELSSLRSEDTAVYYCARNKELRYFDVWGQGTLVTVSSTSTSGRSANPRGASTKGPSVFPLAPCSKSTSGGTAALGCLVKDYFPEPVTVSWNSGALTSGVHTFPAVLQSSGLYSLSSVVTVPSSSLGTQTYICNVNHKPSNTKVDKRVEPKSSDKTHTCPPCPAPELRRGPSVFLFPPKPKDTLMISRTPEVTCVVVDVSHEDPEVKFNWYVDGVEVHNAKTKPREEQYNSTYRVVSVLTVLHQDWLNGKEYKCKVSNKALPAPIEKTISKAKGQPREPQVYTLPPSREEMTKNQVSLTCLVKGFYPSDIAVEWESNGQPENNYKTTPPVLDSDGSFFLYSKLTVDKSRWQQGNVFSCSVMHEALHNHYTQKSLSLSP
light: B1 light with F98L
notes: as for B2
In turn, B10 showed a Kd of 0.499 nM.

B11: Anti-IL-12 antibody Ab1 variant L45Q VH/A43Q, Y49A VL (antibody, name in Kabat numbering, V domains shown)
VH: B2 VH with L45Q, I105F
VL: B2 VL with A43Q, L87Y
notes: as for B2
Regarding B11, the Kd amounted to 2.23 nM.

B12: Anti-IL-12 antibody Ab1 variant -/P44Q VL (antibody, V domains shown)
VH: B2 VH with I105F
VL: B2 VL with P44Q, A49Y, L87Y
notes: as for B2
Take B12: the affinity, expressed as Kd, was 0.94 nM.

B13: Anti-IL-12 antibody Ab1 variant -/F98M VL (antibody)
heavy: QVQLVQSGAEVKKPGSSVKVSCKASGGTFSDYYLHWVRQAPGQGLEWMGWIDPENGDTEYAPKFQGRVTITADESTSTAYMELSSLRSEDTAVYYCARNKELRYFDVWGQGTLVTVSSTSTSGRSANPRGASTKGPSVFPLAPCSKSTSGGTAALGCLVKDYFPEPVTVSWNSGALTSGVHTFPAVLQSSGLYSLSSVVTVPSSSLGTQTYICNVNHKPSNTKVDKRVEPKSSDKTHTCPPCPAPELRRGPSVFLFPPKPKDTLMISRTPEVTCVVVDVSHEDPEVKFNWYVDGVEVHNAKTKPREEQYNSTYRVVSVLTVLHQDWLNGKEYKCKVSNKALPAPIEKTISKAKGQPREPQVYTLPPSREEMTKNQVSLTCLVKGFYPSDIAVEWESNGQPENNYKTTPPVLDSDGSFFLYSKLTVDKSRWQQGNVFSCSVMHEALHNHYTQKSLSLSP
light: B1 light with F98M
notes: as for B2
In turn, B13 returned a Kd of 0.685 nM.

B14: Anti-IL-12 antibody Ab1 variant L45Q VH/Y49A, Y87L VL (antibody, name in Kabat numbering, V domains shown)
VH: B2 VH with L45Q, I105F
VL: B2 VL
notes: as for B2
Consider B14, for which the Kd stood at 3.61 nM.

B15: Anti-IL-12 antibody Ab1 variant -/Y87A VL (antibody, V domains shown)
VH: B2 VH with I105F
VL: B2 VL with A49Y, L87A
notes: as for B2
The molecule B15 returned a Kd of 1.21 nM.

B16: Anti-IL-12 antibody Ab1 variant F100aI VH/P44A, Y49A VL (antibody, name in Kabat numbering, V domains shown)
VH: B2 VH
VL: B2 VL with P44A, L87Y
notes: as for B2
In turn, B16 had a Kd of 1.25 nM.

B17: Anti-IL-12 antibody Ab1 variant V37S VH/- (antibody, name in Kabat numbering, V domains shown)
VH: B2 VH with V37S, I105F
VL: B2 VL with A49Y, L87Y
notes: as for B2
On to B17, for which the Kd is 0.789 nM.

B18: Anti-IL-12 antibody Ab1 variant -/P44S VL (antibody, V domains shown)
VH: B2 VH with I105F
VL: B2 VL with P44S, A49Y, L87Y
notes: as for B2
The molecule B18 showed a Kd of 1.17 nM.

B19: Anti-IL-12 antibody Ab1 variant -/Y87M VL (antibody, V domains shown)
VH: B2 VH with I105F
VL: B2 VL with A49Y, L87M
notes: as for B2
Molecule B19 returned a Kd of 1.22 nM.

B20: Anti-IL-12 antibody Ab1 variant F100aI VH/Y49A, F98L VL (antibody, name in Kabat numbering, V domains shown)
VH: B2 VH
VL: B2 VL with L87Y, F98L
notes: as for B2
B20: the affinity, expressed as Kd, was 1.44 nM.

B21: Anti-IL-12 antibody Ab1 variant V37S VH/L46Q, Y49A VL (antibody, name in Kabat numbering, V domains shown)
VH: B2 VH with V37S, I105F
VL: B2 VL with L46Q, L87Y
notes: as for B2
In turn, B21 came in with a Kd of 3.06 nM.

B22: Anti-IL-12 antibody Ab1 variant L45Q VH/P44A, Y49A VL (antibody, name in Kabat numbering, V domains shown)
VH: B2 VH with L45Q, I105F
VL: B2 VL with P44A, L87Y
notes: as for B2
B22 displayed a Kd of 2.74 nM.

B23: Anti-IL-12 antibody Ab1 variant -/F98A VL (antibody)
heavy: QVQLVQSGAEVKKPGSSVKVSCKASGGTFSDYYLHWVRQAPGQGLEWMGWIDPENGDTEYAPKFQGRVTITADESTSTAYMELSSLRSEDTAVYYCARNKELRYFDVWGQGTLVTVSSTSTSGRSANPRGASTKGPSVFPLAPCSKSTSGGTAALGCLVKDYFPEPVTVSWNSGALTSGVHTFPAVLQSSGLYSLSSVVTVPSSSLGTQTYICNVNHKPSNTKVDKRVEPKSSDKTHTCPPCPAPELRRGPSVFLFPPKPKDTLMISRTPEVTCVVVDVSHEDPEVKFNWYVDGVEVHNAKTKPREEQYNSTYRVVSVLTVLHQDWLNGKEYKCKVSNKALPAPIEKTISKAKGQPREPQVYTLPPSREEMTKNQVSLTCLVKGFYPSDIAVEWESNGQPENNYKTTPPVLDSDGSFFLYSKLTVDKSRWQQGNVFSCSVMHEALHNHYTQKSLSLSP
light: B1 light with F98A
notes: as for B2
Turning to B23, the Kd came out at 1.03 nM.

B24: Anti-IL-12 antibody Ab1 variant L45Q VH/- (antibody, name in Kabat numbering, V domains shown)
VH: B2 VH with L45Q, I105F
VL: B2 VL with A49Y, L87Y
notes: as for B2
On to B24, for which binding was put at a Kd of 1.3 nM.

B25: Anti-IL-12 antibody Ab1 variant F100aI VH/- (antibody, name in Kabat numbering, V domains shown)
VH: B2 VH
VL: B2 VL with A49Y, L87Y
notes: Ab1 with a CDR substitution at the VH/VL interface; Kabat numbering
As to B25, the affinity, expressed as Kd, was 0.571 nM.

B26: Anti-IL-12 antibody Ab1 variant L45Q VH/L46Q, Y49A VL (antibody, name in Kabat numbering, V domains shown)
VH: B2 VH with L45Q, I105F
VL: B2 VL with L46Q, L87Y
notes: as for B2
As to B26, the Kd was 2.82 nM.

B27: Anti-IL-12 antibody Ab1 variant F100aI VH/A43Q, L46Q, Y49A VL (antibody, name in Kabat numbering, V domains shown)
VH: B2 VH
VL: B2 VL with A43Q, L46Q, L87Y
notes: as for B2
Consider B27, for which binding was put at a Kd of 3.56 nM.

B28: Anti-IL-12 antibody Ab1 variant L45Q VH/Y49A, F98M VL (antibody, name in Kabat numbering, V domains shown)
VH: B2 VH with L45Q, I105F
VL: B2 VL with L87Y, F98M
notes: as for B2
Turning to B28, the Kd came to 3.27 nM.

B29: Anti-IL-12 antibody Ab1 variant F100aI VH/L46Q, Y49A, Y87M VL (antibody, name in Kabat numbering, V domains shown)
VH: B2 VH
VL: B2 VL with L46Q, L87M
notes: as for B2
B29 came in with a Kd of 3.68 nM.

B30: Anti-IL-12 antibody Ab1 variant F100aI VH/L46Q, Y49A VL (antibody, name in Kabat numbering, V domains shown)
VH: B2 VH
VL: B2 VL with L46Q, L87Y
notes: as for B2
B30 came in with a Kd of 3.48 nM.

B31: Anti-IL-12 antibody Ab1 variant -/L46Q VL (antibody, V domains shown)
VH: B2 VH with I105F
VL: B2 VL with L46Q, A49Y, L87Y
notes: as for B2
B31: the Kd amounted to 1.62 nM.

B32: Anti-IL-12 antibody Ab1 variant -/P44A VL (antibody, V domains shown)
VH: B2 VH with I105F
VL: B2 VL with P44A, A49Y, L87Y
notes: as for B2
For the molecule B32, the Kd was determined as 0.858 nM.

B33: Anti-IL-12 antibody Ab1 variant V37Q VH/- (antibody, name in Kabat numbering, V domains shown)
VH: B2 VH with V37Q, I105F
VL: B2 VL with A49Y, L87Y
notes: as for B2
For B33, binding was characterised by a dissociation constant (Kd) of 1.48 nM.

B34: Anti-IL-12 antibody Ab1 variant -/Y49A VL (antibody, V domains shown)
VH: B2 VH with I105F
VL: B2 VL with L87Y
notes: as for B2
B34 came in with a Kd of 1.74 nM.

These data come from patent US20240343771A1 (Chugai, published 2024).
